# Reference: the Human Domainome abundance scans (Beltran et al. 2025)
# ± gives the uncertainty stated by the source.
# B1: Telomeric repeat-binding factor 2, residues 489 to 542; numbered along this chain, Q15554 (parent)
# chain: KQKWTVEESEWVKAGVQKYGEGNWAAISKNYPFVNRTAVMIKDRWRTMKRLGMN
# Variants of: B1
# Test: abundance fitness (aPCA) (normalised: wild type 0, dead -1); higher = more abundant; growth selection in yeast, the domain comes from the species named
# Details: Homo sapiens
row,Variant,abundance fitness
1,N23V,-0.27 ± 0.092
2,N23W,-0.39 ± 0.26
3,N23Y,-0.539 ± 0.28
4,W24A,-0.932 ± 0.49
5,W24C,-0.982 ± 0.34
6,W24D,-0.72 ± 0.2
7,W24E,-0.585 ± 0.16
8,W24F,-0.642 ± 0.23
9,W24G,-0.596 ± 0.14
10,W24I,-0.291 ± 0.27
11,W24K,-0.788 ± 0.48
12,W24L,-0.858 ± 0.18
13,W24P,-0.89 ± 0.36
14,W24Q,-0.442 ± 0.34
15,W24R,-1.15 ± 0.18
16,W24S,-0.226 ± 0.15
17,W24T,-0.705 ± 0.21
18,W24V,-1.08 ± 0.23
19,A25C,-0.091 ± 0.15
20,A25D,0.472 ± 0.24
21,A25E,0.074 ± 0.11
22,A25F,0.045 ± 0.13
23,A25G,-0.13 ± 0.066
24,A25H,-0.127 ± 0.22

row,Variant,abundance fitness
1,A25I,-0.217 ± 0.39
2,A25K,-0.448 ± 0.12
3,A25L,-0.17 ± 0.065
4,A25M,-0.018 ± 0.13
5,A25N,0.015 ± 0.13
6,A25P,-0.663 ± 0.27
7,A25Q,0.08 ± 0.1
8,A25R,-0.373 ± 0.12
9,A25W,-0.146 ± 0.041
10,A25Y,-0.235 ± 0.1
11,A26C,0.047 ± 0.14
12,A26D,-0.266 ± 0.14
13,A26E,-0.18 ± 0.12
14,A26G,-0.792 ± 0.11
15,A26I,-0.177 ± 0.28
16,A26K,-0.005 ± 0.11
17,A26L,-0.022 ± 0.082
18,A26M,-0.493 ± 0.28
19,A26N,-0.656 ± 0.22
20,A26Q,0.078 ± 0.15
21,A26S,-0.068 ± 0.053
22,A26T,0.065 ± 0.22
23,A26V,-0.025 ± 0.043
24,A26W,-0.545 ± 0.16

row,Variant,abundance fitness
1,A26Y,-0.288 ± 0.15
2,I27A,-0.862 ± 0.24
3,I27E,-0.938 ± 0.26
4,I27F,-0.606 ± 0.35
5,I27G,-0.901 ± 0.11
6,I27H,-0.235 ± 0.26
7,I27K,-0.757 ± 0.09
8,I27L,-0.457 ± 0.1
9,I27M,-0.561 ± 0.22
10,I27P,-0.87 ± 0.41
11,I27R,-0.788 ± 0.055
12,I27S,-1.12 ± 0.23
13,I27T,-0.533 ± 0.28
14,I27V,-0.545 ± 0.13
15,I27W,-0.919 ± 0.24
16,S28A,0.142 ± 0.097
17,S28C,-0.17 ± 0.12
18,S28D,-0.887 ± 0.42
19,S28F,-0.098 ± 0.11
20,S28G,-0.171 ± 0.085
21,S28H,0.101 ± 0.23
22,S28I,0.196 ± 0.14
23,S28K,0.114 ± 0.068
24,S28M,-0.568 ± 0.26

row,Variant,abundance fitness
1,S28N,0.163 ± 0.14
2,S28P,-0.726 ± 0.31
3,S28Q,0.11 ± 0.13
4,S28T,0.038 ± 0.14
5,S28V,0.121 ± 0.076
6,S28W,0.036 ± 0.095
7,S28Y,-0.458 ± 0.3
8,K29A,-0.256 ± 0.11
9,K29C,0.162 ± 0.13
10,K29D,-0.188 ± 0.15
11,K29G,-0.364 ± 0.051
12,K29H,-0.042 ± 0.23
13,K29I,-0.221 ± 0.1
14,K29L,-0.129 ± 0.076
15,K29M,-0.091 ± 0.091
16,K29N,0.205 ± 0.45
17,K29P,-0.626 ± 0.23
18,K29R,-0.281 ± 0.088
19,K29S,-0.082 ± 0.053
20,K29T,-0.051 ± 0.12
21,K29V,-0.066 ± 0.08
22,K29W,-0.54 ± 0.13
23,K29Y,-0.116 ± 0.16
24,N30A,-0.042 ± 0.071

row,Variant,abundance fitness
1,N30C,-0.402 ± 0.099
2,N30D,-0.474 ± 0.18
3,N30E,0.077 ± 0.12
4,N30F,-0.422 ± 0.2
5,N30K,-0.16 ± 0.088
6,N30L,-0.287 ± 0.064
7,N30M,-0.314 ± 0.17
8,N30P,-0.963 ± 0.18
9,N30Q,-0.092 ± 0.18
10,N30R,-0.508 ± 0.11
11,N30S,-0.113 ± 0.058
12,N30T,-0.338 ± 0.22
13,N30W,-0.431 ± 0.092
14,N30Y,-0.284 ± 0.082
15,Y31C,-0.49 ± 0.16
16,Y31D,-0.499 ± 0.28
17,Y31E,-0.757 ± 0.12
18,Y31F,-0.417 ± 0.26
19,Y31G,-0.499 ± 0.074
20,Y31H,-0.539 ± 0.094
21,Y31K,-0.535 ± 0.13
22,Y31M,-0.431 ± 0.1
23,Y31N,-0.539 ± 0.056
24,Y31P,-0.389 ± 0.22

row,Variant,abundance fitness
1,Y31Q,-0.751 ± 0.05
2,Y31R,-0.626 ± 0.11
3,Y31S,-0.729 ± 0.069
4,Y31T,-0.727 ± 0.051
5,Y31V,-0.496 ± 0.11
6,Y31W,-0.444 ± 0.1
7,P32A,-0.327 ± 0.038
8,P32C,-0.593 ± 0.053
9,P32E,-0.611 ± 0.045
10,P32F,-0.746 ± 0.045
11,P32G,-0.429 ± 0.037
12,P32H,-0.574 ± 0.043
13,P32I,-0.774 ± 0.069
14,P32K,-0.316 ± 0.039
15,P32L,-0.726 ± 0.037
16,P32M,-0.565 ± 0.04
17,P32N,-0.294 ± 0.052
18,P32Q,-0.501 ± 0.044
19,P32R,-0.4 ± 0.042
20,P32S,-0.361 ± 0.037
21,P32T,-0.532 ± 0.042
22,P32V,-0.747 ± 0.04
23,P32Y,-0.864 ± 0.068
24,F33A,-0.745 ± 0.061

row,Variant,abundance fitness
1,F33C,-0.899 ± 0.29
2,F33D,-1.02 ± 0.35
3,F33H,-0.212 ± 0.26
4,F33I,-0.834 ± 0.34
5,F33K,-0.715 ± 0.21
6,F33L,-0.65 ± 0.09
7,F33M,-0.652 ± 0.08
8,F33N,-0.499 ± 0.43
9,F33P,-0.871 ± 0.087
10,F33Q,-0.817 ± 0.28
11,F33R,-0.845 ± 0.079
12,F33S,-0.972 ± 0.2
13,F33T,-0.826 ± 0.19
14,F33V,-0.604 ± 0.075
15,F33W,-0.166 ± 0.054
16,V34A,-0.16 ± 0.044
17,V34C,-0.123 ± 0.053
18,V34D,-0.711 ± 0.16
19,V34E,0.005 ± 0.044
20,V34F,-0.129 ± 0.064
21,V34G,-0.34 ± 0.043
22,V34H,0.032 ± 0.11
23,V34I,-0.066 ± 0.093
